Results taken from patent US20230279128A1 (SYNTHEKINE, published 2023).

T1: extracellular domain of mIFNgR2 (mouse)
T1 construct: also called mIFNgR2 ECD; mouse IFNgR2 extracellular domain
T1 chain: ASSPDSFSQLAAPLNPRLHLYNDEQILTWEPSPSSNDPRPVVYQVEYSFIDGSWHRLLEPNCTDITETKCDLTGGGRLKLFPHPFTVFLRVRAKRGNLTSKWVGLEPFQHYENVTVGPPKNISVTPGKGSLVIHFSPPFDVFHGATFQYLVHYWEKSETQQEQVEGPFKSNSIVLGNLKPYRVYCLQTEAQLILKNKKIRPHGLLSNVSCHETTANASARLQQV

T2: extracellular domain of hIFNgR2 (human, UniProt P38484 28-247)
T2 construct: also called hIFNgR2 ECD; hIFNgR2-ECD
T2 sequence: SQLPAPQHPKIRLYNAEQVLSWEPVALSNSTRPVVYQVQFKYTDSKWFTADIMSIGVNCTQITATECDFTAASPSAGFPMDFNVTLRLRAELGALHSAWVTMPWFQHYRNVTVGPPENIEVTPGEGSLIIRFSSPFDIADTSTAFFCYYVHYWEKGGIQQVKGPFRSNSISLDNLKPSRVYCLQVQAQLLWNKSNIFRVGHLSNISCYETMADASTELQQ

B1: DR930 (VHH)
VHH: EVQLVESGGGLVQAGGSLRLSCTVSGRTFSSYAVAWFRQAPGNVRELAAALSRGGGSAYYTDSVKGRFTISRDNAKNTVYLQMNSLKPEDTAVYYCAARNYDGTYYQENQYNYWGQGTQVTVSS
B2: DR932 (VHH)
VHH: QVQLVESGGGLVQAGGFLRLSCAASGRTFSYTTIGWFRQAPGKEREFVAVISAGGGSRDYADALKGRFTISRDNAKKMVYLQMNNLKPEDTAVYYCAVRRNTDTYTTTGDYDYWGQGTQVTVSS
B3: DR935 (VHH)
VHH: QVQLVESGGGLVQAGGSLRLSCAASGRAFSTYALGWFRQAPGKEREFIAAISRGGGSTDYADSVKGRFTISRDNAKSTVYLQMNSLKPEDTAVYYCAARSYSSSYYYSQYEYDYWGQGTQVTVSS
B4: DR931 (VHH)
VHH: QVQLVESGGGLVQAGGSLLLSCAASGRTFSTYAMGWFRQAPGKERMFVAAISVNGGSTYYADSVTGRFTISRDNAKNTMYLQMNNLKPGDTAVYYCAARRPYPGSDFLTWASYDYRGQGTLVTVSS
B5: DR934 (VHH)
VHH: QVQLVESGGGLVQAGGSLRLSCAASGRSFANYAMGWFRQAPGKERETVAAISRGGGSTWYADSVKGRFTISKDNAKNTVYLQMNSLKPEDTAIYYCAARSYSGSYTYSFGEYDYWGQGTQVTVSS
B6: DR933 (VHH)
VHH: QVQLVESGGGLVQPGDSLRLSCVASGGTISSLAMGWFRQAPGKEREFVAAISWSGRSTYYVDSVKGRFTISTDNAKNTVYLQMNSLKPEDTAVYYCVAGEDGHSEYDYWGQGTQVTVSS

Biological target: T1, extracellular domain of mIFNgR2
Experiment: flow cytometry, cross-reactivity
B1: binds. B2: binds. B3: binds. B4: binds. B5: binds. B6: binds.

The binders below were run against T2, extracellular domain of hIFNgR2 (assay: flow cytometry).
B1: binds. B2: binds. B3: binds. B4: binds. B5: binds. B6: binds.
